Starred links: 1 amine or outer side, 2 acyl side, 3 side chain; linkers in the order of their positions; H or OH if unused. Non-standard residues stand in square brackets, D forms with d. Groups on a side chain read outwards from the residue. No end group written: not given here. *: point of attachment. C20 diacid = O=C(O)CCCCCCCCCCCCCCCCCCC(=O)*; C18 diacid = O=C(O)CCCCCCCCCCCCCCCCC(=O)*; αMePhe(2-F) = C[C@](N)(Cc1ccccc1F)C(=O)O; γGlu = O=C(O)[C@H](CCC(=O)[*:2])N[*:1]; αMeL = CC(C)C[C@](C)(N)C(=O)O; AEEA = NCCOCCOCC(=O)O; Aib = CC(C)(N)C(=O)O Where only a bound is given, the exact number is not on record here.

The record followed here is patent US20210032299A1 (Eli Lilly, published 2021).

Holding throughout (experiment): cell-based or functional assay
Assay [1] concerns the target human GLP-1 receptor (human, UniProt P43220 24-463).
The target of assay [2] is human glucagon receptor (human, UniProt P47871 26-477).
Assay [3] deals with T1, human glucose-dependent insulinotropic peptide receptor (human, UniProt P48546 22-466).
T1 sequence (looked up): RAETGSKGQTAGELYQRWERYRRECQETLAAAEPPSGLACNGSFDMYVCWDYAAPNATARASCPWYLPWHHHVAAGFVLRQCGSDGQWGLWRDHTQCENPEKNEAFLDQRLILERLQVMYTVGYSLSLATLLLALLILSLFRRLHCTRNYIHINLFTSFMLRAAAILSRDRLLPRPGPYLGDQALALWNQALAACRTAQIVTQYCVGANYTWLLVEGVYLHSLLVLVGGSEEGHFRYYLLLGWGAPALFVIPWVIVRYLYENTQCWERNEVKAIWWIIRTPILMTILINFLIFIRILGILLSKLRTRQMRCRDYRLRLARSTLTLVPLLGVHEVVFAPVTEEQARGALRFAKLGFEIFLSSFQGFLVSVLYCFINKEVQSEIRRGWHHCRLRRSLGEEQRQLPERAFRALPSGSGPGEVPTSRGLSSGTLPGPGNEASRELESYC

human glucagon receptor, sequence (P47871 26-477): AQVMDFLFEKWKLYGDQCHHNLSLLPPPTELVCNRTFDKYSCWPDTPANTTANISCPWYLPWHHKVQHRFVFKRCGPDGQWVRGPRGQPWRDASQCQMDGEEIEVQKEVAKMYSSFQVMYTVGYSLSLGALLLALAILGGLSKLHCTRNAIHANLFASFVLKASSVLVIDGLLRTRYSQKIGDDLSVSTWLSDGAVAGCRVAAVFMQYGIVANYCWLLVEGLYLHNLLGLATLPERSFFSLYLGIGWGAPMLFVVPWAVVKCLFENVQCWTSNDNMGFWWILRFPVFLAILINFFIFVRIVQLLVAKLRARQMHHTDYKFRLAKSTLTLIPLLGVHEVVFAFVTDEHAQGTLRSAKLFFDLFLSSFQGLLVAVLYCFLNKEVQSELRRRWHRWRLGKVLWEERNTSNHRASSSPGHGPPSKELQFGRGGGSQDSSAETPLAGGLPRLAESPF

B1: Example 32 (peptide)
peptide: Y[dA]EGTLISDYSILLDKK([AEEA-AEEA-γGlu-C18 diacid])AQ[Aib]DFVNWLLAQGPSSGAPPPS-NH2
modifications: N-terminus assumed
SMILES: CC[C@H](C)[C@H](NC(=O)[C@H](CO)NC(=O)[C@H](Cc1ccc(O)cc1)NC(=O)[C@H](CC(=O)O)NC(=O)[C@H](CO)NC(=O)[C@@H](NC(=O)[C@H](CC(C)C)NC(=O)[C@@H](NC(=O)CNC(=O)[C@H](CCC(=O)O)NC(=O)[C@@H](C)NC(=O)[C@@H](N)Cc1ccc(O)cc1)[C@@H](C)O)[C@@H](C)CC)C(=O)N[C@@H](CC(C)C)C(=O)N[C@@H](CC(C)C)C(=O)N[C@@H](CC(=O)O)C(=O)N[C@@H](CCCCN)C(=O)N[C@@H](CCCCNC(=O)COCCOCCNC(=O)COCCOCCNC(=O)CC[C@H](NC(=O)CCCCCCCCCCCCCCCCC(=O)O)C(=O)O)C(=O)N[C@@H](C)C(=O)N[C@@H](CCC(N)=O)C(=O)NC(C)(C)C(=O)N[C@@H](CC(=O)O)C(=O)N[C@@H](Cc1ccccc1)C(=O)N[C@H](C(=O)N[C@@H](CC(N)=O)C(=O)N[C@@H](Cc1c[nH]c2ccccc12)C(=O)N[C@@H](CC(C)C)C(=O)N[C@@H](CC(C)C)C(=O)N[C@@H](C)C(=O)N[C@@H](CCC(N)=O)C(=O)NCC(=O)N1CCC[C@H]1C(=O)N[C@@H](CO)C(=O)N[C@@H](CO)C(=O)NCC(=O)N[C@@H](C)C(=O)N1CCC[C@H]1C(=O)N1CCC[C@H]1C(=O)N1CCC[C@H]1C(=O)N[C@@H](CO)C(N)=O)C(C)C
As to B1, the “hGLP1R cAMP Rel EC50” value in assay [1] is above 5000 nM. The “hGcgR cAMP Rel EC50” value in assay [2] is above 5000 nM. Besides, in assay [3], the “hGIPR cAMP Rel EC50” value amounted to 0.00469 nM.

B2: Example 33 (peptide)
peptide: Ac-[dY]AEGT[αMePhe(2-F)]ISDYSIALDKK([AEEA-AEEA-γGlu-C20 diacid])HQ[Aib]EFVNYLLEGGPSSGAPPPS-NH2
SMILES: CC[C@H](C)[C@H](NC(=O)[C@H](CO)NC(=O)[C@H](Cc1ccc(O)cc1)NC(=O)[C@H](CC(=O)O)NC(=O)[C@H](CO)NC(=O)[C@@H](NC(=O)[C@](C)(Cc1ccccc1F)NC(=O)[C@@H](NC(=O)CNC(=O)[C@H](CCC(=O)O)NC(=O)[C@H](C)NC(=O)[C@@H](Cc1ccc(O)cc1)NC(C)=O)[C@@H](C)O)[C@@H](C)CC)C(=O)N[C@@H](C)C(=O)N[C@@H](CC(C)C)C(=O)N[C@@H](CC(=O)O)C(=O)N[C@@H](CCCCN)C(=O)N[C@@H](CCCCNC(=O)COCCOCCNC(=O)COCCOCCNC(=O)CC[C@H](NC(=O)CCCCCCCCCCCCCCCCCCC(=O)O)C(=O)O)C(=O)N[C@@H](Cc1c[nH]cn1)C(=O)N[C@@H](CCC(N)=O)C(=O)NC(C)(C)C(=O)N[C@@H](CCC(=O)O)C(=O)N[C@@H](Cc1ccccc1)C(=O)N[C@H](C(=O)N[C@@H](CC(N)=O)C(=O)N[C@@H](Cc1ccc(O)cc1)C(=O)N[C@@H](CC(C)C)C(=O)N[C@@H](CC(C)C)C(=O)N[C@@H](CCC(=O)O)C(=O)NCC(=O)NCC(=O)N1CCC[C@H]1C(=O)N[C@@H](CO)C(=O)N[C@@H](CO)C(=O)NCC(=O)N[C@@H](C)C(=O)N1CCC[C@H]1C(=O)N1CCC[C@H]1C(=O)N1CCC[C@H]1C(=O)N[C@@H](CO)C(N)=O)C(C)C
Regarding B2, the “hGLP1R cAMP Rel EC50” value in assay [1] is above 5000 nM. The “hGcgR cAMP Rel EC50” value in assay [2] was above 5000 nM. The “hGIPR cAMP Rel EC50” value in assay [3] was determined as 0.0551 nM.

B3: Example 31 (peptide)
peptide: Y[Aib]EGTFISDYSILLDKK([AEEA-AEEA-γGlu-C18 diacid])HQ[Aib]DFVNYLLAAGPSSGAPPPS-NH2
modifications: N-terminus assumed
SMILES: CC[C@H](C)[C@H](NC(=O)[C@H](CO)NC(=O)[C@H](Cc1ccc(O)cc1)NC(=O)[C@H](CC(=O)O)NC(=O)[C@H](CO)NC(=O)[C@@H](NC(=O)[C@H](Cc1ccccc1)NC(=O)[C@@H](NC(=O)CNC(=O)[C@H](CCC(=O)O)NC(=O)C(C)(C)NC(=O)[C@@H](N)Cc1ccc(O)cc1)[C@@H](C)O)[C@@H](C)CC)C(=O)N[C@@H](CC(C)C)C(=O)N[C@@H](CC(C)C)C(=O)N[C@@H](CC(=O)O)C(=O)N[C@@H](CCCCN)C(=O)N[C@@H](CCCCNC(=O)COCCOCCNC(=O)COCCOCCNC(=O)CC[C@H](NC(=O)CCCCCCCCCCCCCCCCC(=O)O)C(=O)O)C(=O)N[C@@H](Cc1c[nH]cn1)C(=O)N[C@@H](CCC(N)=O)C(=O)NC(C)(C)C(=O)N[C@@H](CC(=O)O)C(=O)N[C@@H](Cc1ccccc1)C(=O)N[C@H](C(=O)N[C@@H](CC(N)=O)C(=O)N[C@@H](Cc1ccc(O)cc1)C(=O)N[C@@H](CC(C)C)C(=O)N[C@@H](CC(C)C)C(=O)N[C@@H](C)C(=O)N[C@@H](C)C(=O)NCC(=O)N1CCC[C@H]1C(=O)N[C@@H](CO)C(=O)N[C@@H](CO)C(=O)NCC(=O)N[C@@H](C)C(=O)N1CCC[C@H]1C(=O)N1CCC[C@H]1C(=O)N1CCC[C@H]1C(=O)N[C@@H](CO)C(N)=O)C(C)C
With B3, the “hGLP1R cAMP Rel EC50” value in assay [1] is above 5000 nM. Besides, in assay [2], the “hGcgR cAMP Rel EC50” value stood at 1750 nM. In assay [3], the “hGIPR cAMP Rel EC50” value amounted to 0.0148 nM.

B4: Example 35 (peptide)
peptide: Y[Aib]EGT[αMeL]ISDYSIALDKK([AEEA-AEEA-γGlu-C20 diacid])HQ[Aib]EFVNYLLATGPSSGAPPPS-NH2
modifications: N-terminus assumed
SMILES: CC[C@H](C)[C@H](NC(=O)[C@H](CO)NC(=O)[C@H](Cc1ccc(O)cc1)NC(=O)[C@H](CC(=O)O)NC(=O)[C@H](CO)NC(=O)[C@@H](NC(=O)[C@](C)(CC(C)C)NC(=O)[C@@H](NC(=O)CNC(=O)[C@H](CCC(=O)O)NC(=O)C(C)(C)NC(=O)[C@@H](N)Cc1ccc(O)cc1)[C@@H](C)O)[C@@H](C)CC)C(=O)N[C@@H](C)C(=O)N[C@@H](CC(C)C)C(=O)N[C@@H](CC(=O)O)C(=O)N[C@@H](CCCCN)C(=O)N[C@@H](CCCCNC(=O)COCCOCCNC(=O)COCCOCCNC(=O)CC[C@H](NC(=O)CCCCCCCCCCCCCCCCCCC(=O)O)C(=O)O)C(=O)N[C@@H](Cc1c[nH]cn1)C(=O)N[C@@H](CCC(N)=O)C(=O)NC(C)(C)C(=O)N[C@@H](CCC(=O)O)C(=O)N[C@@H](Cc1ccccc1)C(=O)N[C@H](C(=O)N[C@@H](CC(N)=O)C(=O)N[C@@H](Cc1ccc(O)cc1)C(=O)N[C@@H](CC(C)C)C(=O)N[C@@H](CC(C)C)C(=O)N[C@@H](C)C(=O)N[C@H](C(=O)NCC(=O)N1CCC[C@H]1C(=O)N[C@@H](CO)C(=O)N[C@@H](CO)C(=O)NCC(=O)N[C@@H](C)C(=O)N1CCC[C@H]1C(=O)N1CCC[C@H]1C(=O)N1CCC[C@H]1C(=O)N[C@@H](CO)C(N)=O)[C@@H](C)O)C(C)C
For B4, in assay [1], the “hGLP1R cAMP Rel EC50” value is above 5000 nM. Besides, the “hGcgR cAMP Rel EC50” value in assay [2] was above 5000 nM. The “hGIPR cAMP Rel EC50” value in assay [3] was 0.0125 nM.

B5: Example 30 (peptide)
peptide: Ac-[dY]AEGT[αMePhe(2-F)]ISDYSIALDKK([AEEA-AEEA-γGlu-C18 diacid])HQ[Aib]EFVNYLLAGGPSSGAPPPS-NH2
SMILES: CC[C@H](C)[C@H](NC(=O)[C@H](CO)NC(=O)[C@H](Cc1ccc(O)cc1)NC(=O)[C@H](CC(=O)O)NC(=O)[C@H](CO)NC(=O)[C@@H](NC(=O)[C@](C)(Cc1ccccc1F)NC(=O)[C@@H](NC(=O)CNC(=O)[C@H](CCC(=O)O)NC(=O)[C@H](C)NC(=O)[C@@H](Cc1ccc(O)cc1)NC(C)=O)[C@@H](C)O)[C@@H](C)CC)C(=O)N[C@@H](C)C(=O)N[C@@H](CC(C)C)C(=O)N[C@@H](CC(=O)O)C(=O)N[C@@H](CCCCN)C(=O)N[C@@H](CCCCNC(=O)COCCOCCNC(=O)COCCOCCNC(=O)CC[C@H](NC(=O)CCCCCCCCCCCCCCCCC(=O)O)C(=O)O)C(=O)N[C@@H](Cc1c[nH]cn1)C(=O)N[C@@H](CCC(N)=O)C(=O)NC(C)(C)C(=O)N[C@@H](CCC(=O)O)C(=O)N[C@@H](Cc1ccccc1)C(=O)N[C@H](C(=O)N[C@@H](CC(N)=O)C(=O)N[C@@H](Cc1ccc(O)cc1)C(=O)N[C@@H](CC(C)C)C(=O)N[C@@H](CC(C)C)C(=O)N[C@@H](C)C(=O)NCC(=O)NCC(=O)N1CCC[C@H]1C(=O)N[C@@H](CO)C(=O)N[C@@H](CO)C(=O)NCC(=O)N[C@@H](C)C(=O)N1CCC[C@H]1C(=O)N1CCC[C@H]1C(=O)N1CCC[C@H]1C(=O)N[C@@H](CO)C(N)=O)C(C)C
Take B5: the “hGLP1R cAMP Rel EC50” value in assay [1] was above 5000 nM. For the same molecule, the “hGcgR cAMP Rel EC50” value in assay [2] is above 5000 nM. For the same molecule, the “hGIPR cAMP Rel EC50” value in assay [3] is 0.00572 nM.

B6: Example 34 (peptide)
peptide: Y[Aib]EGT[αMePhe(2-F)]ISDYSIALDKK([AEEA-AEEA-γGlu-C20 diacid])HQ[Aib]EFVNYLLATGPSSGAPPPS-NH2
modifications: N-terminus assumed
SMILES: CC[C@H](C)[C@H](NC(=O)[C@H](CO)NC(=O)[C@H](Cc1ccc(O)cc1)NC(=O)[C@H](CC(=O)O)NC(=O)[C@H](CO)NC(=O)[C@@H](NC(=O)[C@](C)(Cc1ccccc1F)NC(=O)[C@@H](NC(=O)CNC(=O)[C@H](CCC(=O)O)NC(=O)C(C)(C)NC(=O)[C@@H](N)Cc1ccc(O)cc1)[C@@H](C)O)[C@@H](C)CC)C(=O)N[C@@H](C)C(=O)N[C@@H](CC(C)C)C(=O)N[C@@H](CC(=O)O)C(=O)N[C@@H](CCCCN)C(=O)N[C@@H](CCCCNC(=O)COCCOCCNC(=O)COCCOCCNC(=O)CC[C@H](NC(=O)CCCCCCCCCCCCCCCCCCC(=O)O)C(=O)O)C(=O)N[C@@H](Cc1c[nH]cn1)C(=O)N[C@@H](CCC(N)=O)C(=O)NC(C)(C)C(=O)N[C@@H](CCC(=O)O)C(=O)N[C@@H](Cc1ccccc1)C(=O)N[C@H](C(=O)N[C@@H](CC(N)=O)C(=O)N[C@@H](Cc1ccc(O)cc1)C(=O)N[C@@H](CC(C)C)C(=O)N[C@@H](CC(C)C)C(=O)N[C@@H](C)C(=O)N[C@H](C(=O)NCC(=O)N1CCC[C@H]1C(=O)N[C@@H](CO)C(=O)N[C@@H](CO)C(=O)NCC(=O)N[C@@H](C)C(=O)N1CCC[C@H]1C(=O)N1CCC[C@H]1C(=O)N1CCC[C@H]1C(=O)N[C@@H](CO)C(N)=O)[C@@H](C)O)C(C)C
In the case of B6, in assay [1], the “hGLP1R cAMP Rel EC50” value was determined as 462 nM. Also, the “hGcgR cAMP Rel EC50” value in assay [2] was 913 nM. The “hGIPR cAMP Rel EC50” value in assay [3] is 0.0177 nM.
